# Source: patent publication US20220296736A1, “ADMINISTRATION OF THERAPEUTIC AGENTS TO BRAIN AND OTHER CELLS AND TISSUE” (priority 2019, published 2022)
# What was measured:
# [1] = Safety of IA mannitol-induced BBBO in the cortex (MRI and GFAP/IBA1 histology); format: in vivo, SCID mice
# Method: Once cortical perfusion has been confirmed, 25% mannitol mixed with Gd (50:1) was infused until enhancement indicating BBB breach has been achieved (up to three bolus injections 1-2 min each; interval between infusions is 30 s). For detailed assessment of the BBB status, high resolution T1-weighted scan was collected after mannitol infusion. Three and seven days after OBBBO, the safety of the procedure was evaluated by MRI and then animals were sacrificed for further histological assessment.
# For histological evaluation on the safety of OBBBO in the cortex, 7 days after surgery, animals (n=4) were anesthetized and perfused transcardially with 5% sucrose, followed by 4% paraformaldehyde (PFA). The brains were rapidly removed and post-fixed overnight in 4% PFA at 4° C. The brains were cryopreserved in 30% sucrose and 30-μm thick coronal sections were cryosectioned. Immunohistochemistry for anti-GFAP (1:250, Dako) and anti-Iba1 (1:250, Wako) was performed to assess the neuroinflammation. The secondary antibody was goat anti-rabbit (Alexa Fluor-488, 1:200, Molecular Probes). […] All the fluorescent images were acquired using an inverted microscope (Zeiss, Axio Observer Z1).
# Data is expressed as mean±SD unless otherwise specified. Quantitation of immunohistochemistry was based on relative fluorescence using Image J and analyzed using a paired t-test. The ratio of ipsi-/contralateral was analyzed using an unpaired t-test. The MRI analysis of the change in area of the Gd perfusion territory and Gd-enhancement for each mouse was calculated using a custom-written script in MATLAB and analyzed using a paired t-test. A p-value less than 0.05 was considered significant.
# recombinant human VEGF-A = assay: Functional binding assay of BV and BVDFO to VEGF (Bevacizumab ELISA); details: unmodified BV versus BVDFO conjugate
# Method: The ELISA assay devoted for assessment of bevacizumab concentration has been used to assess the binding capacity of unmodified BV and BVDFO conjugate. The assay was carried out using Bevacizumab ELISA (ImmunoGuide, Eagle Bioscience) according to the manufacturer protocol. Briefly, 100 μg/mL, 50 μg/mL, 25 μg/mL of BV and BVDFO, as well as the provided standards were diluted 1:1000, and pipetted in 6 repetitions into the wells of the microtiter plate coated with recombinant human VEGF-A. Plate was incubated for 60 min in the room temperature and washed 3× with buffer. Next, horseradish peroxidase (HRP) conjugated anti-human IgG monoclonal antibody was added to each well, and incubated in room temperature for 30 min. Plate was washed 3× with the buffer and ready-to-use TMB substrate solution was added to each well. After 15 min incubation in dark, stop solution was added to each well and the color change from blue to yellow was observed. The absorbance at 450 nm was read using Victor 3 plate reader (Perkin Elmer) within 10 min after addition of the stop solution and expressed as optical density (OD).
# [2] = Histological assessment of BV biodistribution and extravasation; format: in vivo, SCID mice; details: for localisation in brain tissue: one hour after delivery
# Method: For histological evaluation on the safety of OBBBO in the cortex, 7 days after surgery, animals (n=4) were anesthetized and perfused transcardially with 5% sucrose, followed by 4% paraformaldehyde (PFA). The brains were rapidly removed and post-fixed overnight in 4% PFA at 4° C. The brains were cryopreserved in 30% sucrose and 30-μm thick coronal sections were cryosectioned. Immunohistochemistry for anti-GFAP (1:250, Dako) and anti-Iba1 (1:250, Wako) was performed to assess the neuroinflammation. The secondary antibody was goat anti-rabbit (Alexa Fluor-488, 1:200, Molecular Probes). For detecting the biodistribution of infused BV, the mice with OBBBO (n=4) and without OBBBO (n=3) were sacrificed 1 hour after administration. The brains were cryosectioned at 30 μm and the slices were stained with goat anti-human secondary antibody (Alexa Fluor-488, 1:200, Invitrogen). All the fluorescent images were acquired using an inverted microscope (Zeiss, Axio Observer Z1).
# A p-value less than 0.05 was considered significant.
# [3] = Intravital 2PM visualization of cortical BBBO and drug extravasation; format: in vivo, SCID mice; details: IA infusion with 25% mannitol; 7 ROIs
# Method: Before microscopy, isoflurane anesthetized mice (n=5) with cranial window and with arterial access as described above were stabilized in a custom-made frame immobilizing their head. The mice were positioned under an epi-fluorescent microscope and a 10× magnification objective was used for capturing images at frequency of 1-2 Hz. Saline solution of 0.001 mM rhodamine (0.58 kDa) was injected using a syringe infusion pump at the rate of 0.15 ml/min over 1 min via the ICA microcatheter to visualize trans-catheter perfusion. When the cortex was not perfused, the cCCA was closed temporarily for 20 s by engaging the weights.
# For 2PM to visualize OBBBO and drug penetration, mice were placed under a multiphoton microscope (FV1000MPE, Olympus, Tokyo, Japan). A 10× objective (UPlanSApo, 0.40 NA and 3.1 mm working distance) was centered over the cranial window and used to collect time series images of 800×800 pixels (1.59 μm/pixel; 2 μs/pixel; 100 frames) at an estimated depth of 150 um below the cortical surface. Rhodamine (0.002 mM) mixed with BV-FITC (0.01 mM) was injected prior to OBBBO to collect baseline data and optimize cortical perfusion (temporary cCCA closure). Then, 25% mannitol mixed with rhodamine and BV-FITC was delivered at the rate of 0.15 ml/min for 4 mins in total. […]
# [4] = mouse, in vivo
# Method: (§1) In the first step, we conjugated BV with DFO chelator and characterized resulting conjugate by means of its molecular weight and binding to vascular endothelial growth factor (VEGF).
# (§2) All animal procedures were carried out under protocols approved by the Johns Hopkins Animal Care and Use Committee. Under general anesthesia with 1-2% isoflurane a catheter was placed in internal carotid artery of C3HeB/FeJ (Jackson, stock No. 000658), male, 6-8 weeks old mice, as we described previously (22) and animal was transferred to the PET-CT scanner. […] A CT scan (512 projections) was performed after dynamic scan for anatomical co-registration. PET/CT imaging was repeated around 24 h post infusion. PET data were reconstructed using the two-dimensional ordered subsets-expectation maximization algorithm (2D-OSEM) and corrected for dead time and radioactive decay. Presented whole body images were generated using Amira® (FEI, Hillsboro, Oreg.) and dynamic scans (brain and heart radioactivity accumulation) and radioactivity distribution in different brain regions were analyzed with PMOD 4.3 (PMOD Technologies LLC, Zurich, Switzerland).
# [5] = mouse, in vivo, iv; cited from earlier work
# [6] = mouse, in vivo; remark: listed apart in the source
# Method: as §1, with “(VEGF). […] Next day PET-CT imaging was repeated and animals were sacrificed to perform ex vivo biodistribution of ^89ZrBVDFO.” for “(VEGF).”
# as §2
# [7] = human, in vivo, iv; cited from earlier work
# recombinant human VEGF-A, sequence (P15692 207-320 limits assumed): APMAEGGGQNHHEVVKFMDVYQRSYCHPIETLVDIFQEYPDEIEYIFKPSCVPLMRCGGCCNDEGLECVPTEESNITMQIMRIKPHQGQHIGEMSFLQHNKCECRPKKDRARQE
compound,measurement,setting,value
OC[C@@H](O)[C@@H](O)[C@H](O)[C@H](O)CO [mannitol],brain damage after cortical BBBO induction (MRI and histology),[1]; 3 and 7 days after BBBO,did not cause brain damage
same,astrocytic or microglial activation in the BBBO region (GFAP and IBA-1 staining),"[1]; 7 days post BBBO, ipsilateral versus contralateral",no evidence of astrocytic or microglial activation
same,brain damage after excessive exposure (T2 hyperintensity),[1]; continuous 4 min-infusion,led to brain damage
BVDFO: bevacizumab conjugated with p-SCN-Bn-DFO chelator,binding to VEGF,recombinant human VEGF-A,did not affect its targeting properties
"BV: AVASTIN (BV, Roche), bevacizumab, antibody binding VEGF",localisation in brain tissue,[2]; IA delivery with OBBBO,both blood vessels and parenchyma
same,localisation in brain tissue,[2]; IA delivery with intact BBB (BBBI),localized within the blood vessels
same,uptake in ipsilateral vs. contralateral hemisphere (fluorescence intensity),[2]; both groups (BBBI and OBBBO),significantly higher uptake
rhodamine,extravasation upon BBBO compared to BV-FITC (2PM fluorescence intensity),[3],earlier onset and higher intensity of extravasation
89ZrBVDFO: bevacizumab conjugated with on average 3 molecules of DFO chelator and radiolabeled with 89Zr,clearance from the brain compared with 89ZrNB(DFO)2,[4],slower
same,accumulation in the brain and tumors,[5],no accumulation
same,radioactivity accumulation in contralateral hemisphere,[6],no radioactivity accumulation
same,signal in the contralateral hemisphere,[6],negligible signal
same,radioactivity in the entire brain,[6]; iv,2.91 % ID/cc
same,uptake in diffuse intrinsic pontine glioma,[7],some uptake in five out of seven patients
